Here are results for six molecules from patent publication EP4454706A1 (Universität Stuttgart, dated 2024).

Where two headings read alike, the source gives them in different places. Bounds are passed on as bounds.

As usually defined, the EC50 is the concentration that produces a half-maximal response.

In test [1] the target is T1, human EGFR (aa 1 - 1,210), on cells (human, UniProt P00533 25-1210). Kind of test: cell-based or functional assay.
Test [2] has as its target T1, human EGFR (aa 1 - 1,210), on cells. In words: cell-based or functional assay. The source holds these as a separate data set.
Test [3] shares this target. Kind of test: flow cytometry, FaDu cells. In general terms: In flow cytometry, cells or beads pass a laser one at a time.
The target is the same in test [4]. Kind of test: flow cytometry, FaDu cells. This is another data set of the same source.
The target is the same in test [5]. In words: flow cytometry, SW620 cells.
A further test addresses T2, CD3 on Jurkat cells (human, UniProt P07766 23-207).
T2 construct: whole, on cells; also called CD3-expressing Jurkat
In words: flow cytometry, Jurkat cells.

The target in test [6] is T1, human EGFR (aa 1 - 1,210), on cells. Kind of test: flow cytometry, LIM1215 cells.
Test [7] shares this target. Kind of test: flow cytometry, HCT-116 cells.
In test [8] the target is T3, EGFR-moIgG2a-Fc fusion protein comprising the extracellular domain (aa 25 - 645) of human EGFR (human).
T3 construct: also called EGFR wt
In words: ELISA, coated EGFR-moIgG2a-Fc. For orientation: An ELISA detects its analyte on a solid surface through an enzyme-linked reagent.

For test [9], the target named is T4, EGFR-His fusion protein comprising the extracellular domain of murine EGFR (aa 25 - 647) (murine, UniProt Q01279 25-647).
T4 construct: Bought protein; also called mouse EGFR; Sino Biological 51091-M08H
In words: ELISA, coated murine EGFR-His.

The target in test [10] is T1, human EGFR (aa 1 - 1,210), on cells. Kind of test: flow cytometry, A431 cells.
For test [11] the target is unchanged. In words: flow cytometry, DiFi cells.
Test [12] has the same target. In words: flow cytometry, FaDu cells. This is another data set of the same source.
The target is the same in test [13]. In words: flow cytometry, LIM1215 cells. This is another data set of the same source.
The next test concerns the target T5, EGFR-moIgG2a-Fc G434A (human).
T5 construct: also called EGFR G434A
In words: ELISA, coated mutant EGFR-moIgG2a-Fc.

A further test concerns the target T6, EGFR-moIgG2a-Fc Q435P (human).
T6 construct: see m31; also called EGFR Q435P
In words: ELISA, coated mutant EGFR-moIgG2a-Fc.

The target in the next test is T7, EGFR-moIgG2a-Fc F436A (human).
T7 construct: see m31; also called EGFR F436A
Kind of test: ELISA, coated mutant EGFR-moIgG2a-Fc.

In another test the target is T8, EGFR-moIgG2a-Fc I462A (human).
T8 construct: see m31; also called EGFR I462A
Kind of test: ELISA, coated mutant EGFR-moIgG2a-Fc.

The target of test [14] is T9, EGFR-moIgG2a-Fc F436A/I462A (human).
T9 construct: see m31; also called double mutant F436A/I462A
Kind of test: ELISA, coated mutant EGFR-moIgG2a-Fc.

The target in another test is EGFR-moIgG2a-Fc S484A (human). Kind of test: ELISA, coated mutant EGFR-moIgG2a-Fc.
The target of a further test is EGFR-moIgG2a-Fc K487A (human). Kind of test: ELISA, coated mutant EGFR-moIgG2a-Fc.
The target of test [15] is T10, EGFR-moIgG2a-Fc F381A/H383A (human).
T10 construct: also called F381/H383
In words: ELISA, coated mutant EGFR-moIgG2a-Fc.

Test [16] addresses T4, EGFR-His fusion protein comprising the …. Kind of test: ELISA, coated murine EGFR-His, 10 nM IgG.
For test [17], the target named is T3, EGFR-moIgG2a-Fc fusion protein …. In words: competition ELISA, coated EGFR-moIgG2a-Fc; 1 nM IgG against 200 nM Fab-His.
A further test has as its target T11, EGFR-moIgG2a-Fc K489E (human).
T11 construct: See m39
In words: ELISA, coated mutant EGFR.

In test [18] the target is T12, EGFR-His fusion protein comprising the extracellular domain (aa 25 - 645) of human EGFR (human, UniProt P00533 25-645).
T12 construct: also called His-tagged extracellular domain of EGFR wt
Kind of test: ELISA, coated EGFR-His.

The target of test [19] is T12, EGFR-His fusion protein comprising the …. In words: ELISA, coated human EGFR.
Test [20] has as its target T1, human EGFR (aa 1 - 1,210), on cells. Kind of test: flow cytometry, DiFi cells. This is another data set of the same source.
For test [21] the target is unchanged. Kind of test: flow cytometry, FaDu cells. The source holds these as a separate data set.
Test [22] concerns the target T12, EGFR-His fusion protein comprising the …. Kind of test: ELISA, coated human EGFR-His.
Test [23] deals with T4, EGFR-His fusion protein comprising the …. Kind of test: ELISA, coated murine EGFR-His. This is another data set of the same source.
Test [24] concerns the target T13, EGFR-His fusion protein comprising the extracellular domain of cynomolgus monkey EGFR (aa 1 - 645) (cynomolgus monkey, UniProt P55245 25-645 (rhesus entry)).
T13 construct: Bought protein; also called Sino Biological SIN-90285-C08H-50
In words: ELISA, coated cynomolgus monkey EGFR-His.

The target in test [25] is T3, EGFR-moIgG2a-Fc fusion protein …. Kind of test: ELISA, coated EGFR-moIgG2a-Fc. The source holds these as a separate data set.

B1: Fab-eIg YU250-H10xhuU3 (bispecific antibody)
light: QSVLTQPPSVSGAPGQRVTISCSGGSSNVGRNGVNWFQHLPEKAPKLLIYYDAFLSSGVSDRFSGSKSGTSASLAIRGLQSDDEADYYCAAWDDSLYSWVFGGGTNLTVLGQPKAAPSVTLFPPSSEELQANKATLVCLISDFYPGAVTVAWKADSSPVKAGVETTTPSKQSNNKYAASSYLSLTPEQWKSHRSYSCQVTHEGSTVEKTVAPTECS
chain 1: not shown
chain 2: not shown
chain 3: not shown
notes: also called bispecific trivalent EGFRxCD3 Fab-eIg YU250-H10
In the case of B1, the “IC50 for cytotoxicity, FaDu + PBMCs (E:T 10:1)” value in [1] was 0.007 nM; in test [2], 0.0048 nM. Also, the “IC50 for cytotoxicity, LIM1215 + PBMCs (E:T 10:1)” value in test [1] was 0.003 nM. The “IC50 for cytotoxicity, HCT-116 + PBMCs (E:T 10:1)” value in test [2] stood at 0.003 nM. For the same molecule, the “IC50 for cytotoxicity, SW620 + PBMCs (E:T 10:1)” value in test [2] worked out at 0.0049 nM. The EC50 in test [3] is 0.76 nM; in [4], 0.32 nM; in [5] it was 0.03 nM; with CD3 on Jurkat cells, above 10 nM; in [6], 0.27 nM; in [7], 0.13 nM.

B2: Matuzumab (antibody, human IgG1, kappa, V domains shown)
VH: QVQLVQSGAEVKKPGASVKVSCKASGYTFTSHWMHWVRQAPGQGLEWIGEFNPSNGRTNYNEKFKSKATMTVDTSTNTAYMELSSLRSEDTAVYYCASRDYDYDGRYFDYWGQGTLVTVSS
VL: DIQMTQSPSSLSASVGDRVTITCSASSSVTYMYWYQQKPGKAPKLLIYDTSNLASGVPSRFSGSGSGTDYTFTISSLQPEDIATYYCQQWSSHIFTFGQGTKVEIKR
notes: also called IgG Matuzumab
With B2, the binding result in test [8] is given as “binds”; in test [9] it was “no binding (tested: 10 nM)”; with EGFR-moIgG2a-Fc G434A it was “binds”; in the test with EGFR-moIgG2a-Fc Q435P, “binds”; with EGFR-moIgG2a-Fc F436A it was “binds”; in the test with EGFR-moIgG2a-Fc I462A, “binds”. The binding result in test [14] was “binds”; with EGFR-moIgG2a-Fc S484A it was “no binding”; with EGFR-moIgG2a-Fc K487A it was “no binding”. For the same molecule, the EC50 in test [10] is 1.68 nM; in [11], 0.95 nM; in [12], 0.34 nM; in [13], 0.12 nM.

B3: IgG GC1118 (antibody, V domains shown)
VH: EVQLVESGGGVVQPGGSLRLSCAASGFTFSDYDMSWIRQAPGKGLEWVSGILGGSERSYYRDSVKGRFTISRDNSRKTLYLQMNSLRAEDTAVYYCARHGSPGYTLYAWDYWGQGTTVTVSS
VL: DIVMTQTPLSLPVTPGEPASISCRSNQDLTHSNGNTYLEWYLQKPGQSPRLLIYKVSNRFSGVPDRFSGSGAGTDFTLRISRVEAEDVGVYYCMQGTHWPWTFGQGTKVDIKR
notes: also called GC118
As to B3, the concentration giving a half-maximal response (EC50) in test [10] worked out at 1.67 nM; in test [11], 1.1 nM; in test [12], 0.47 nM; in [13], 0.15 nM. Moreover, the binding result with EGFR-moIgG2a-Fc G434A is reported as “binds”; with EGFR-moIgG2a-Fc Q435P, “binds”; with EGFR-moIgG2a-Fc F436A, “binds”; with EGFR-moIgG2a-Fc I462A, “binds”; in test [14] it was “binds”; in test [15], “no binding”. Also, the binding result in test [16] and in test [17] was “binds” in each case.

B4: Panitumumab (antibody, human IgG1, kappa, V domains shown)
VH: QVQLQESGPGLVKPSETLSLTCTVSGGSVSSGDYYWTWIRQSPGKGLEWIGHIYYSGNTNYNPSLKSRLTISIDTSKTQFSLKLSSVTAADTAIYYCVRDRVTGAFDIWGQGTMVTVSS
VL: DIQMTQSPSSLSASVGDRVTITCQASQDISNYLNWYQQKPGKAPKLLIYDASNLETGVPSRFSGSGSGTDFTFTISSLQPEDIATYFCQHFDHLPLAFGGGTKVEIKR
notes: also called IgG Panitumumab
B4: the binding result was “binds” in the test with EGFR-moIgG2a-Fc K489E; “binds” in [8]; “no binding (tested: 10 nM)” in test [9]; “binds” with EGFR-moIgG2a-Fc G434A; “binds” with EGFR-moIgG2a-Fc Q435P; “binds” with EGFR-moIgG2a-Fc F436A. The binding result (with EGFR-moIgG2a-Fc I462A; in test [14]) was “binds” each time.

B5: IgG1 YU250-A02 (antibody, V domains shown)
VH: QVQLQESGGGVVQPGGSLRLSCAASGFTFSSYGMHWVRQAPGKGLEWVAFIRYDGSNKYYADSVKGRFTISRDNSKNTLYLQMNSLRAEDTAVYYCAKDGNSGYDSMDYWGQGTLVTVSS
VL: QSVLTQPPSVSGAPGQRVTISCSGGSSNVGRNGVNWFQHLPEKAPKLLIYYDAFLSSGVSDRFSGSKSGTSASLAIRGLQSEDEADYYCASWDDSLTGWVFGGGTKLTVLG
notes: also called IgG YU250-A02
Turning to B5, the EC50 in test [18] turned out to be 0.16 nM; in test [19] it was 0.59 nM; in test [20], 0.64 nM; in [21] it was 0.23 nM; in [10], 1.24 nM; in [11], 0.64 nM. Also, the half-maximal effective concentration (EC50) in [12] came to 0.26 nM; in test [22], 0.36 nM; in test [23], 0.38 nM; in test [13] it was 0.09 nM; in [24] it was 0.69 nM.

B6: IgG1 YU250-H10 (antibody)
light: B1 light
heavy: not shown
notes: also called IgG YU250-H10
With B6, the EC50 in test [18] stood at 0.19 nM; in test [19], 0.78 nM; in test [20], 0.78 nM; in test [21], 0.29 nM; in [10] it was 1.56 nM; in [11] it was 0.73 nM. Further, the EC50 is 0.27 nM in test [12]; 0.28 nM in [22]; 0.27 nM in [25]; 0.45 nM in test [23]; 0.09 nM in test [13]; 0.58 nM in [24].
